According to article PMC2120794:

Target: type I collagen (triple helix)
Assay: SPR
Details: scale: molecules of HSP47 per triple helix of type I collagen

B1: recombinant mouse HSP47 (natural protein)
chain: AEVKKPLEAAAPGTAEKLSSKATTLAERSTGLAFSLYQAMAKDQAVENILLSPLVVASSLGLVSLGGKATTASQAKAVLSAEKLRDEEVHTGLGELLRSLSNSTARNVTWKLGSRLYGPSSVSFADDFVRSSKQHYNCEHSKINFRDKRSALQSINEWASQTTDGKLPEVTKDVERTDGALLVNAMFFKPHWDEKFHHKMVDNRGFMVTRSYTVGVTMMHRTGLYNYYDDEKEKLQMVEMPLAHKLSSLIILMPHHVEPLERLEKLLTKEQLKAWMGKMQKKAVAISLPKGVVEVTHDLQKHLAGLGLTEAIDKNKADLSRMSGKKDLYLASVFHATAFEWDTEGNPFDQDIYGREELRSPKLFYADHPFIFLVRDNQSGSLLFIGRLVRPKGDKMRDEL
stoichiometry N: > 7
